Experimental data from patent US20040175799.

Columns and labels:
[1] = target: whey protein
[2] = target: Soy protein isolate
[3] = target: α-Chymotrypsinogen A, bovine pancreas, P00766
[4] = target: albumen protein
[5] = target: T1, β-Lactoglobulin, bovine milk, P02754
T1 chain: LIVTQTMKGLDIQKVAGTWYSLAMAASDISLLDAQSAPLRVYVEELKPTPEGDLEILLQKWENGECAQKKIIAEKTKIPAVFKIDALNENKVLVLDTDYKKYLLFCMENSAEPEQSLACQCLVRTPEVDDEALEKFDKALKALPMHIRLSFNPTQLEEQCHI

[6] = target: Zein, corn
[7] = target: milk caseinate
[8] = target: Gliadin, what (wheat)
[9] = target: T2, Myoglobin, horse skeletal muscle, P68082
T2 chain: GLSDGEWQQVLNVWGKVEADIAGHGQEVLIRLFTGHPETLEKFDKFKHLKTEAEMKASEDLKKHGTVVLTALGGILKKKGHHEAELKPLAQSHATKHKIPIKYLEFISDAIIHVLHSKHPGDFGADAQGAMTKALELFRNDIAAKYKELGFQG

[10] = target: soybean protein
[11] = target: Gluten, wheat
[12] = target: Gelatin, Type B, bovine skin
[13] = target: T3, Ovalbumin, chichen egg, P01012
T3 chain: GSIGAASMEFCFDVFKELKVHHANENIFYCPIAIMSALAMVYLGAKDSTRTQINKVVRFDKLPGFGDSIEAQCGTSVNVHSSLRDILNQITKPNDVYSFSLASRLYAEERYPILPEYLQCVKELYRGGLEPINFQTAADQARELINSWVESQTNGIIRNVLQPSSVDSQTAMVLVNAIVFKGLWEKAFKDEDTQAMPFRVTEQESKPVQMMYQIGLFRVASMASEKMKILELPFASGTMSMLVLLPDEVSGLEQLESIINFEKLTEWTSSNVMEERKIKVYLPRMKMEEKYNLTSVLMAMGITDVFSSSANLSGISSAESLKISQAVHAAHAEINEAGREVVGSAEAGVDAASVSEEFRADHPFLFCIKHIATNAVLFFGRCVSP

[14] = target: Collagen, Type I, bovine Achilles tendon, P02453
Collagen, Type I, bovine Achilles tendon, P02453, sequence (P02453 162-1217, chain 1 of 2): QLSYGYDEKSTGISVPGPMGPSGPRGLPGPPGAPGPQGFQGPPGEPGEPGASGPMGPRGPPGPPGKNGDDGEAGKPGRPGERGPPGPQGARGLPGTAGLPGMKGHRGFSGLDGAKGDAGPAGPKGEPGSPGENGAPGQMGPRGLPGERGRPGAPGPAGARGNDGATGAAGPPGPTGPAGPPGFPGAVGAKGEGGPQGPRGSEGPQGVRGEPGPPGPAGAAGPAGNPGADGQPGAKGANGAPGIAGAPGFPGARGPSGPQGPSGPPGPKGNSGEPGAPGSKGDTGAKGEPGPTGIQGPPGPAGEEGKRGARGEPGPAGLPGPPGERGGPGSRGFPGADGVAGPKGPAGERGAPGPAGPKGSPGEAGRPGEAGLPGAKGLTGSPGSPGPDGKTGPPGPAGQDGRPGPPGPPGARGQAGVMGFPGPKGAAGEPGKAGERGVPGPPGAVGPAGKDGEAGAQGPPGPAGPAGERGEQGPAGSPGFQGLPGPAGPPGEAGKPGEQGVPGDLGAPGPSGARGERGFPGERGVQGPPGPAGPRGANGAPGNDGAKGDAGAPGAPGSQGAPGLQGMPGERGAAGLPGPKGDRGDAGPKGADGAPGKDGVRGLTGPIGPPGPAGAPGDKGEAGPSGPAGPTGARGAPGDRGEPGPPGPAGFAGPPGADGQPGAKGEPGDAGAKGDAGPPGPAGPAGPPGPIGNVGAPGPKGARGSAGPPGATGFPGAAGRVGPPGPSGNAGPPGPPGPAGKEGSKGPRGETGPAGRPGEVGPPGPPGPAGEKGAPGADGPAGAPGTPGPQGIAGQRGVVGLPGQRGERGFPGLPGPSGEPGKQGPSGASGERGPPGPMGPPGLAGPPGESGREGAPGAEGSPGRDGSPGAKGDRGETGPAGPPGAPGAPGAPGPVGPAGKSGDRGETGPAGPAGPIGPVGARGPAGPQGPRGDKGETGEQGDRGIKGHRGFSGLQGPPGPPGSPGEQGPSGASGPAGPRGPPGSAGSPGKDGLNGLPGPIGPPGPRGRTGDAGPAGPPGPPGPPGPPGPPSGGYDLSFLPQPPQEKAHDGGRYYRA
Collagen, Type I, bovine Achilles tendon, P02453, sequence (P02453 other isoform, or with tags, fused parts or gaps, chain 2 of 2): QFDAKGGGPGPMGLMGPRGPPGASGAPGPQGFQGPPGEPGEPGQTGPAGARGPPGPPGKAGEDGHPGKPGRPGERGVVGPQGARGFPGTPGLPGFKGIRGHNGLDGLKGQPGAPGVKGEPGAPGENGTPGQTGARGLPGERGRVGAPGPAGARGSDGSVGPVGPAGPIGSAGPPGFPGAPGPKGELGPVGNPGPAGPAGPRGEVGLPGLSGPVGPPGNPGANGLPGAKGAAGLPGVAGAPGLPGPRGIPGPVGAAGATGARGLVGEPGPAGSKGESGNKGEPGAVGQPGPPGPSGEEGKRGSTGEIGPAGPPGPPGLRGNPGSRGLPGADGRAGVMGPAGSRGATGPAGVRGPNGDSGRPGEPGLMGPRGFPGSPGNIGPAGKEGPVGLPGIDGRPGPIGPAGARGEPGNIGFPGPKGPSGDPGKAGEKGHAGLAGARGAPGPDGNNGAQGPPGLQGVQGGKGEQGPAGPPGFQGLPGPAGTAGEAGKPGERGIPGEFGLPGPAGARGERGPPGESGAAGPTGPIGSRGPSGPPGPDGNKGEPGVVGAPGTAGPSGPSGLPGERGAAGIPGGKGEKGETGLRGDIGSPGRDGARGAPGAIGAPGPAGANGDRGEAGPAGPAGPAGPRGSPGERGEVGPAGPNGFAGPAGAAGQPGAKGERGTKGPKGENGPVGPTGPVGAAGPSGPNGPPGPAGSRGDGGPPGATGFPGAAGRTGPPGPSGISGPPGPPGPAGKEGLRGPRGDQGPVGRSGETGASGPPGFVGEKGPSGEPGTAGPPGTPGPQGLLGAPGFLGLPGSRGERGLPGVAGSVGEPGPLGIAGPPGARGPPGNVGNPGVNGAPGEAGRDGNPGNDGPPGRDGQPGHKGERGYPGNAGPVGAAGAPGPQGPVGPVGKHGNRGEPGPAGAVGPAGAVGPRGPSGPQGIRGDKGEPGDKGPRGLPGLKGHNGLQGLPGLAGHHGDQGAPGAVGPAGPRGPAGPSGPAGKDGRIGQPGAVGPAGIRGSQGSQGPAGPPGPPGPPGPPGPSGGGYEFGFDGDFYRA

[15] = target: α-Casein, bovine milk
[16] = target: Muscle acetone powder, chicken breast
[17] = target: T4, α-Lactoalbumin, bovine milk, P00711
T4 chain: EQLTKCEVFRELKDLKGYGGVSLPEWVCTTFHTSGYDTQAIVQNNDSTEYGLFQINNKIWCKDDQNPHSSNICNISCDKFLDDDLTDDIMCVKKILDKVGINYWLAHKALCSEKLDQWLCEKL

[18] = target: Aprotinin, bovine lung, P00974
[19] = target: Actin, bovine muscle, P68138
[20] = target: T5, β-Casein, bovine milk, P02666
T5 chain: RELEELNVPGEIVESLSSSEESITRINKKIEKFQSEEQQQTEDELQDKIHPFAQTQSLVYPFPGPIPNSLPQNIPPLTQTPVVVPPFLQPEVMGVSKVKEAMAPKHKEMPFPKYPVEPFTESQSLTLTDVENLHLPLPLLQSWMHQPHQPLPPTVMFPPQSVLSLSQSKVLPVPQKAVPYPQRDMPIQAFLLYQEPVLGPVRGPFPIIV

[21] = target: Bovine serum albumin, bovine, P02769
Bovine serum albumin, bovine, P02769, sequence (P02769 25-607): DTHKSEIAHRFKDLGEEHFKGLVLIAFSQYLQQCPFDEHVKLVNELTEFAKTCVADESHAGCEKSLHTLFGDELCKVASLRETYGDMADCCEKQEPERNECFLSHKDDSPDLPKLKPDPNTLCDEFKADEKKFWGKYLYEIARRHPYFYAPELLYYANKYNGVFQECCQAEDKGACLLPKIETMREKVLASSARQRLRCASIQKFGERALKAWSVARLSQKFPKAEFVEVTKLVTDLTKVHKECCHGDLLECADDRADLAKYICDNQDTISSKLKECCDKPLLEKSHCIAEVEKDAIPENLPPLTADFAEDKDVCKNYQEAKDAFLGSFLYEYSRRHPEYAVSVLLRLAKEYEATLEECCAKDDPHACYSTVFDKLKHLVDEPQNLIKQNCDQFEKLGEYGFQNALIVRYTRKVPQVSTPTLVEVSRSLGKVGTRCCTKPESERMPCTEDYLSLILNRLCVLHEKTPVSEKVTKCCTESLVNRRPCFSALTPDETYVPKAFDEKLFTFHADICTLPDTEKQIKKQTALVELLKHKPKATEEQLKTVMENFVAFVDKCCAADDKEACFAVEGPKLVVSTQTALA

[22] = target: T6, RNase A, bovine pancreas, P61823
T6 chain: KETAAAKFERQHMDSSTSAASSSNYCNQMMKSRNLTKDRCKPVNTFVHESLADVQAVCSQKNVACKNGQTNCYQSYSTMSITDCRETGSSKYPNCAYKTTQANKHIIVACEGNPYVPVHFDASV

B1: protein-deamidating enzyme purified from Chryseobacterium sp. No. 9670 (protein)
chain: LASVIPDVATLNSLFNQIKNQSCGTSTASSPCITFRYPVDGCYARAHKMRQILMNNGYDCEKQFVYGNLKASTGTCCVAWSYHVAILVSYKNASGVTEKRIIDPSLFSSGPVTDTAWRNACVNTSCGSASVSSYANTAGNVYYRSPSNSYLYDNNLINTNCVLTKFSLLSGCSPSPAPDVSSCGF
B1 was tested, and the deamidation ratio [1] was 23% in whey protein, the Ammonia releasing rate [2] was 1.17 µmol/min/mg and the Ammonia releasing rate [3] was 0.65 µmol/min/mg. The deamidation ratio [4] was 7% in albumen protein, the Ammonia releasing rate [5] was 0.728 µmol/min/mg and the Ammonia releasing rate [6] was 0.655 µmol/min/mg. The deamidation ratio [7] was 60% in caseinate, the Ammonia releasing rate [8] was 5.47 µmol/min/mg and the Ammonia releasing rate [9] was 0.014 µmol/min/mg. For the same protein, the deamidation ratio [10] was 20% in soybean protein, the Ammonia releasing rate [11] was 7.2 µmol/min/mg and the deamidation ratio [11] was 74% in wheat gluten. It also gave an Ammonia releasing rate [12] of 0.696 µmol/min/mg, an Ammonia releasing rate [13] of 0.005 µmol/min/mg and an Ammonia releasing rate [14] of 0.177 µmol/min/mg. It also gave an Ammonia releasing rate [15] of 19.1 µmol/min/mg, an Ammonia releasing rate [16] of 0.21 µmol/min/mg and an Ammonia releasing rate [17] of 0.836 µmol/min/mg. The Ammonia releasing rate [18] was 0.224 µmol/min/mg, the Ammonia releasing rate [19] was 0.45 µmol/min/mg and the Ammonia releasing rate [20] was 18.1 µmol/min/mg. The Ammonia releasing rate [21] was 0.009 µmol/min/mg and the Ammonia releasing rate [22] was 2.91 µmol/min/mg.
